Results on 2 molecules are retold here after patent publication US20240010687A1 (University of Washington, published 2024).

The target of experiment [1] is T1, A15.5R82_Axle (C3-C3).
T1 construct: C3 homotrimeric axle with DHR arms; also called C3 axle
T1 chain: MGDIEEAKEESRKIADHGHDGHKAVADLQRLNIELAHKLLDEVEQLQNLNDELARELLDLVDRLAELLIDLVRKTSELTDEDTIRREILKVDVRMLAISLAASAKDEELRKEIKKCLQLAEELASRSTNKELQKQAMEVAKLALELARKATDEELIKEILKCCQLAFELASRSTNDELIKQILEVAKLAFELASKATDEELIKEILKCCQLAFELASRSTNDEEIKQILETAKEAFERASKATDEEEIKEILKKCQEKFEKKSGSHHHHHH
Kind of experiment: single particle cryoEM of the assembled rotor (6.5 Å). As for the experimental part:
Multiple datasets were collected for each design and combined early on during processing. See table 1 and processing flowcharts for details. Briefly, images were manually curated to remove poor quality acquisitions such as bad ice or large regions of carbon. Dose-weighting and image alignment of all 50 frames was carried out using MotionCor2 (56) with 5×5 patch or with cryosparc v2 patch alignment tool with default parameters. Super-resolution krios data was binned 2X during alignment. Initial CTF parameters were estimated using CTFfind4 (57). Particle picking was done with a gaussian blob picker and in some cases followed by a template picker. Particles were extensively classified in 2D to remove junk particles and designs which may not have been intact or were damaged, yielding in some cases relatively few particles. […] In addition, the expected motion of the rotors may have introduced further heterogeneity, limiting classification efforts. Starting models for all designs were always obtained ab initio, despite clear evidence of the expected design in 2D. […] FSC 0.143 curves were generated by exporting half maps to relion for post-process. […] For density modification in Phenix (59), we used as input the exported half maps from cryosparc with default params at 100 bins and local filtering with a factor of 5. […] Directional FSC calculated using remote 3DF SC processing tool. […]

The target in experiment [2] is T2, A113_c2arms9_Axle (D3-C5).
T2 construct: De novo designed D3 homohexameric axle; For biolayer interferometry it was Avi-tagged and biotinylated; also called D3 axle; axle of the D3-C5 rotor
T2 chain: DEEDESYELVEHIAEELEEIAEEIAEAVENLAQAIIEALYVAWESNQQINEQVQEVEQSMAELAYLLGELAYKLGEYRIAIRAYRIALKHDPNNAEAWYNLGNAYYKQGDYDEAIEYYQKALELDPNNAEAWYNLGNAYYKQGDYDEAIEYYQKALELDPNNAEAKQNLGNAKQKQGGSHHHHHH
Kind of experiment: EM, biolayer interferometry, SEC and SAXS of the assembled rotor. The protocol: FIG. 13. Biolayer interferometry assays measuring in vitro assembly of ring and axle parts into a full rotary system. For each 6 designs, the equilibrium binding curves from biolayer interferometry binding assays is shown on the left and the corresponding Biolayer interferometry kinetic binding traces shown on the right. Biotinylated axles were immobilized on the tip and the binding in a solution of fre rings was measured. For both D3-C5 and D3-C3, a fresh ring solution was prepared by buffer exchange from citrate buffer to TBS with reducing agent, and immediately used for binding assays.
Protein samples were purified by SEC in 25 mM Tris pH 8.0, 25 mM NaCl and 1% glycerol; elution fractions corresponding to the protein were further concentrated using 3K protein concentrators (Millipore Sigma) and the flow-through was used as blank for buffer subtraction. SAXS Scattering measurements were performed at the SIBYLS 12.3.1 beamline at the Advanced Light Source. […] Collected data were processed using the SAXS FrameSlice™ online server and analysed using the ScÅtter software package(23). […]

B1: A15.5R82_Ring (C3-C3) (designed binder)
chain: MGVEELLLLARAAHHSGTTVEEAYKLAKKLGISVKELLLLARAAHNSGTTVEEAYKLALKLGISVEELLLLAKAAHYSGTTVEEAYKLALELGISVRELLLLAKAAHFAGRTVREAYALELALGALRLEDRARELIKEAEKKGDPEKLREALEALEEAVRLVEEAIKLRPDMDLAVEIAVRLARMLKRVAELLQELAKKTGDPELLKLALRALEVAVRAVELAIKSNPDNDEAVETAVRLARELKKVAEELQERAKKTGDPELLKLALRALEVAVRAVELAIKSNPDNEEAVETAKRLAEELRKVAELLEERAKETGDPELQELAKRAKEVADRARELAKKSGSHHHHHH
notes: C3 ring of three subunits, each fused to DHR82; also called C3 ring
B1: in experiment [1], the binding result is on record as “binds”.

B2: A113_c2arms9_Ring (D3-C5) (designed binder)
chain: MGDRSEHAKKLKTFLENLRRHLDRLDKHIKQLRDILSENPEDERVKDVIDLSERSVRIVKTVIKIFEDSVRELEKAILWLAEELAKSPDPEDLKRAVELARAVIEANPGSNLSRKAMEIIERAARELSKLPDPEAQRTAIEAASQLATMAAATGNTDQVRRAAELMVEIARLAGTEEAQDLALDALLDVLETALQIATKIIDDANKLLEKLRRSERKDPKVVETYVELLKRHEEAVRLLLEVARVHEELVRFTIIEEKVRSPDCEDIRDAVREAEELLRENPSEMAEELLRRAIEAAVRCPDCEAIREAVRAAEELLRENPSTEAEELLRRAIEAAVRCPDCEAIREAVRAAEELLRENPSEEAKELLRRAIESAKKCPDPEAQREAKRAEEELRKEGSHHHHHH
notes: De novo designed C5 homopentameric ring; also called C5 ring; ring of the D3-C5 rotor
As for B2, the binding result in experiment [2] is reported as “binds”.
